Results taken from the supplement of paper PMC10567573.
± gives the standard deviation.

Assay: protein stability index of a GFP-peptide fusion (GPS, HEK-293T) (PSI 1-6); higher = more stable
Details: c terminus: a fixed tail appended
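Further: 24-mer peptide tiles fused after GFP, lentivirally expressed, FACS-sorted into six equal bins by GFP/DsRed ratio, decoded by Illumina sequencing, PSI is the read-weighted mean bin number.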

| Sequence | protein stability index (treatment: DMSO) | protein stability index (treatment: MLN4924 1 uM, 8 h) |
| --- | --- | --- |
| KCRDLSALMHELSNDGARRQFEFY [BTBD10] | 2.06 ± 0.3 | 2.23 ± 0.3 |
| IEELEREAERKIIEENITSAAPSN [SRPK2] | 5.34 ± 0.15 | 5.17 ± 0.25 |
| IFMGYQNVEDEAETKKVLGLQDTI [PALM] | 3.27 ± 0.26 | 3.35 ± 0.3 |
| NICHVWHMNVEALPEWISCLIQKA [RNF180] | 2.01 ± 0.24 | 2.57 ± 0.38 |
| WLPLHYAAWQGHLPIVKLLAKQPG [RIPK4] | 1.94 ± 0.24 | 2.63 ± 0.81 |
| SYSPASASSGGAGAAVGTGSSYPT [JUNB] | 4.41 ± 0.27 | 4.61 ± 0.094 |
| QAIYVIDFFWNETWYLKTIDICHD [DHCR7] | 3.14 ± 0.37 | 3.25 ± 0.4 |
| YQARKPLWFYNTSLKFFLNKPMLA [RHOBTB3] | 2.67 ± 0.57 | 1.97 ± 0.19 |
| MSPGPLDALSSPTSVQEADETTRS [C2CD2L] | 5.35 ± 0.37 | 5.38 ± 0.15 |
| LAVMGYDRYIAICNPLRYSVLMGH [OR10K2] | 2.55 ± 0.28 | 2.58 ± 0.6 |
| LKAKLQMTEAALALSEQKAQDLGE [LRRC45] | 4.51 ± 0.36 | 4.57 ± 0.28 |
| KQLLNSAVIAQQRRKPDPPKDENE [DLC1] | 5.35 ± 0.28 | 5.41 ± 0.12 |
| NLLGEGQHKCDECGKSFTQSSGLI [ZSCAN9] | 3.66 ± 0.3 | 3.68 ± 0.28 |
| LISKGANVNRTTANNDHTVLSLAC [ANKRD17] | 2.82 ± 0.22 | 2.81 ± 0.27 |
| TEDCPTGSALTFREEQCAAYNHRT [ADAMTS4] | 5.09 ± 0.22 | 5.03 ± 0.12 |
| PWSPCSARFITDFLDNGYGHCLLD [ADAMTS4] | 2.05 ± 0.21 | 2.21 ± 0.41 |
| SEDMWGDEDFTFGAYQPTVVSSEG [FBF1] | 4.53 ± 0.23 | 4.84 ± 0.23 |
| HTEDFQKEEGTVNGASWHTVAGSL [CPXM2] | 4.63 ± 0.069 | 4.76 ± 0.38 |
| LASYPLALVRTRMQAQASIEGAPE [SLC25A25] | 4.03 ± 0.19 | 4.18 ± 0.43 |
| PPPPYEAVVSQMDQEQGSSFQMSE [FAM189A2] | 5.54 ± 0.27 | 5.43 ± 0.096 |
| GNPFLDVPQALSATTYKHGVLTRK [PSD2] | 4.08 ± 0.3 | 4.18 ± 0.4 |
| GILEHVDSASPVEDTSNDESSILG [M1AP] | 5.56 ± 0.26 | 5.48 ± 0.4 |
| PAFDALGQLTGGYKPNPQIYVKLI [OAS1] | 2.34 ± 0.14 | 2.15 ± 0.26 |

| Sequence | protein stability index (treatment: DMSO) | protein stability index (treatment: MLN4924 1 uM, 8 h) |
| --- | --- | --- |
| TEHEKKQKLETDAMFRLEHGEADR [YJU2B] | 5.32 ± 0.12 | 5.46 ± 0.3 |
| KIKRLRSQVQVSLEDYINDRQYDS [HNF4A] | 3.23 ± 0.19 | 3.45 ± 0.15 |
| IPSEEWPNPPTLQEAGLSHTEVLF [FAF2] | 3.8 ± 0.23 | 3.81 ± 0.21 |
| KENKDVIQKNKLKLTREQEELEEA [MNAT1] | 5.49 ± 0.29 | 5.37 ± 0.31 |
| VNDLAVGLRRLGLHRTEGELQKIV [SLC25A25] | 3.03 ± 0.074 | 3.02 ± 0.28 |
| VSSLSEVEEVDMAEEFEQPTLSCE [ELOA2] | 5.57 ± 0.27 | 5.52 ± 0.17 |
| PRLCYLVKEGGSYGFSLKTVQGKK [PDZK1] | 3.02 ± 0.12 | – |
| SPSVPCIFCEEHFPVAEQDKLLKH [ZNF277] | 4.16 ± 0.24 | 4.37 ± 0.084 |
| EEDNVEESEEEGPWEPPVLPILTW [HDAC6] | 4.33 ± 0.29 | 4.62 ± 0.3 |
| LGAGSDLKDFTLNETVNSIFAQGA [ADAMTSL2] | 3.12 ± 0.2 | 3.28 ± 0.35 |
| KKRVSMILQSPAFCEELESMIQEQ [ADD1] | 3.58 ± 0.27 | 3.76 ± 0.43 |
| ESLLAPLNVELDPEIQKVRAQERE [KRT71] | 5.54 ± 0.44 | 5.48 ± 0.2 |
| MADCILVNSQFTAAVFKETFKSLS [ALG2] | 2.66 ± 0.42 | 2.73 ± 0.55 |
| NMSSSRGPLPVKRGPPPRSGGPPP [RBMX] | 4.41 ± 0.22 | 4.45 ± 0.45 |
| CEKFLQEVDFFQRYFIADLPHLQD [INTS4] | 2.49 ± 0.54 | 1.95 ± 0.48 |
| LAEYCVKTKAPAPDEGSDLFYDDY [CDC34] | 4.12 ± 0.24 | 4.33 ± 0.41 |
| AEPLKEDKPVTGPRNKTENGLTPK [ATF6] | 5.5 ± 0.26 | 5.35 ± 0.18 |
| SQCQMETKPLAIHPCGDKNCPAHW [ADAMTSL2] | 3.91 ± 0.62 | 4.53 ± 0.31 |
| LLAHRLRRWHKSRLLQASGGGLTG [PCDHGA10] | 2.52 ± 0.47 | 2.07 ± 0.35 |
| RTIRHVYCKTSDGRVVPESQCQME [ADAMTSL2] | 4.08 ± 0.16 | 4.09 ± 0.31 |
| KCQVGFSSSDLVMRARDSVYHIEC [ISL2] | 1.99 ± 0.36 | 2.3 ± 0.31 |
| TSAEIELPDVEPAAFLALLRFLYS [BTBD1] | 2.42 ± 0.25 | 2.34 ± 0.2 |
| MAGAATGSRTPGRSELVEGCGWRC [TRIM14] | 3.46 ± 0.32 | 3.61 ± 0.26 |

| Sequence | protein stability index (treatment: DMSO) | protein stability index (treatment: MLN4924 1 uM, 8 h) |
| --- | --- | --- |
| EDVDTSQVLYEWEQGFSQSFTQEQ [CTNNB1] | 5.03 ± 0.23 | 5.07 ± 0.21 |
| TWAMRQRGTHAVVGVATADAPLHS [SPSB1] | 2.72 ± 0.34 | 2.87 ± 0.23 |
| EEWLDILGNGLLRKKTLVPGPPGS [FKBP8] | 2.62 ± 0.12 | 2.78 ± 0.5 |
| VEEFGVVSNTRLIAAATSVLKTRF [CCNC] | 2.88 ± 0.61 | 2.26 ± 0.68 |
| EQLIEAINNGDFEAYTKICDPGLT [CAMK2D] | 4.06 ± 0.34 | 4.1 ± 0.23 |
| FLLIVTLCVILYKKVHKGTVPKND [GLT8D2] | 2.59 ± 0.8 | 2.3 ± 0.59 |
| FAKAGDTLSGTCLLIANKRQSYDI [CARM1] | 2.48 ± 0.38 | 2.36 ± 0.41 |
| GVMSAYAMCVRYDGVEVDDSYCDA [ADAMTSL2] | 3.05 ± 0.15 | 2.91 ± 0.23 |
| ESQASRKEEGLPEEEPSHVTGREG [ZNF8] | 5.62 ± 0.1 | 5.59 ± 0.2 |
| LTLVLVASVLLQAVLYPRFMGTIS [CD207] | 2.99 ± 0.28 | 3.25 ± 0.45 |
| ISHRSTVASCMHRQETVDCLKKFN [CAMK2A] | 3.23 ± 0.077 | 3.14 ± 0.11 |
| VLFSVAGGLFVGKEGPMIHSGSVV [CLCN6] | 2.58 ± 0.34 | 2.74 ± 0.5 |
| GLVYRLNRFRVEISFHFEVTNHNI [TRIM43] | 3.33 ± 0.66 | 3.35 ± 0.8 |
| HGNQSAGEDQAFGDWLLTANGSEI [SLC22A15] | 4.56 ± 0.34 | 4.67 ± 0.18 |
| HAVSTCHFCVDDTKLLSGSYDCTV [WDR88] | 2.46 ± 0.26 | 2.44 ± 0.33 |
| IRSMDPSALASDRFNLILADTNSD [DCAF4] | 4 ± 0.14 | 3.85 ± 0.11 |
| RNHGILMETHKELKPLLSPSSETT [LYSMD4] | 4.49 ± 0.14 | 4.62 ± 0.3 |
| GAAESPYSHLGGIDYKTTTILLDG [RAB40A] | 3.61 ± 0.4 | 3.57 ± 0.17 |
| EPWLPLTDGRSPRRSRDPGYDHLW [PLEKHN1] | 3.68 ± 0.14 | 3.57 ± 0.26 |
| GGGTPSLASPHTVAAVLEAVAQTA [RSAD1] | 3.46 ± 0.52 | 3.54 ± 0.3 |
| PQNGSETGWARKGLGNTWPGASGS [ATP23] | 4.32 ± 0.24 | 4.33 ± 0.34 |
| TDDPTAGRSNAPITAPTEVEVMDE [CSNK1G3] | 5.67 ± 0.13 | 5.51 ± 0.22 |
| DTFAAYTREQLYQAIFHAVDQYLA [MCOLN1] | 2.66 ± 0.44 | 2.42 ± 0.44 |

| Sequence | protein stability index (treatment: DMSO) | protein stability index (treatment: MLN4924 1 uM, 8 h) |
| --- | --- | --- |
| SEAKADKILAEAAKLVPMGFTTAT [RAD51] | 3.93 ± 0.25 | 3.93 ± 0.13 |
| AREHFGTVKTHLTSLKTKFPAEQY [TSN] | 3.02 ± 0.085 | 3.08 ± 0.48 |
| APRFNQQLYTAYILENRPPGSLLC [PCDHGC5] | 2.1 ± 0.2 | 2.07 ± 0.28 |
| IKPSENHYSLLTSQPLDREATSHY [PCDHGC5] | 3.87 ± 0.062 | 3.93 ± 0.38 |
| CDDGGDGRGAVVPGAGLRRPTYTP [ZBTB22] | 4.35 ± 0.23 | 4.25 ± 0.26 |
| RLSSSLQGSAVTLKTSKMALSPSA [CDC14A] | 3.5 ± 0.38 | 3.65 ± 0.32 |
| DEKAKPRDRQQAPGLGQESKAPGS [TLE6] | 5.49 ± 0.21 | 5.49 ± 0.21 |
| SRILNEMRDQYEQMAEKNRRDAET [KRT16] | 4.65 ± 0.27 | 4.78 ± 0.27 |
| TFDGSLFAVFPSLNEEQTLQEVPT [ETS2] | 3.69 ± 0.28 | 3.57 ± 0.18 |
| AGGAGRGEDEENREHRVRRIHVRR [KCTD13] | 5.19 ± 0.16 | 5.34 ± 0.28 |
| VSREENREDKATIKCETSPPSSPR [PPFIA4] | 5.49 ± 0.48 | 5.53 ± 0.21 |
| HRERVAMHYQMSVTLKYEIKKLIY [JAGN1] | 2.71 ± 0.49 | 2.92 ± 0.45 |
| DDKLFQKLAKVYSYAHGWMFQGWN [CPN1] | 2.45 ± 0.51 | 2.25 ± 0.45 |
| SASHYKLQVIKALKSSGLCESLTY [M1AP] | 2.03 ± 0.41 | 2.25 ± 0.59 |
| KEFQQVFIPECNDDGTYSQVQCHS [SMOC2] | 4.01 ± 0.36 | 4.38 ± 0.29 |
| GLSAPHSRQIPAPQGAVLVQREKD [KISS1] | 5.34 ± 0.19 | 5.19 ± 0.087 |
| IWAKTPPITRKAAQLYTLWVTFQV [DHCR7] | 3.3 ± 0.52 | 2.81 ± 0.6 |
| GSVYFWATPRQVPSLQHLCRMSIR [WSB1] | 3.05 ± 0.2 | 2.7 ± 0.043 |
| VEQPQPQFISRFLEGQSGVTIKHV [NEK8] | 3.27 ± 0.18 | 3.29 ± 0.17 |
| SRGYRNHRSSRETRDYAPPSRGHA [RBMY1A1] | 4.63 ± 0.3 | 4.63 ± 0.4 |
| DGGEPQSVQVDGQARTQKLQGLIP [TNXB] | – | 5.22 ± 0.99 |
